The results in this text go back to patent US20220204643A1 (published 2022).

Assay [1] has as its target T1, Jupiter microtubule associated homolog 2 (human, UniProt Q9H910 1-190).
T1 construct: on protein array; also called HN1L
T1 sequence: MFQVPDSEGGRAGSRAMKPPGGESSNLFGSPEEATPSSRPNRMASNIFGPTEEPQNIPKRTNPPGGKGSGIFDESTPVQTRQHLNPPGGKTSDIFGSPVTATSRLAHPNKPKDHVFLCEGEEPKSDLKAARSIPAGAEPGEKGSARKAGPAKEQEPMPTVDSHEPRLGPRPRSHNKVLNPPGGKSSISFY
In words: protein array.

Assay [2] deals with T2, endosome associated trafficking regulator 1, transcript variant 2 (human, UniProt Q96C92 59-435).
T2 construct: on protein array; also called SDCCAG3
T2 chain: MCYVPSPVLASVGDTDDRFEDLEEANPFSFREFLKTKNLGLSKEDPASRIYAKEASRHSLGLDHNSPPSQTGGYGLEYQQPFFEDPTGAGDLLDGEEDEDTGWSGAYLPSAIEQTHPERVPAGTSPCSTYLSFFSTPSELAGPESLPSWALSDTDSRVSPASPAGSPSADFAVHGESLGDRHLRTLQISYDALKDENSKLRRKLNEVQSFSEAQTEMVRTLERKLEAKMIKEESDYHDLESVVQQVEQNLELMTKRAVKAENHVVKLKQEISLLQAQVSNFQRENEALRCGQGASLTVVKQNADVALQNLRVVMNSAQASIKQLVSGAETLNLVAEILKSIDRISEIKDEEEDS
In words: protein array.

For assay [3], the target named is T3, endosome associated trafficking regulator 1, transcript variant 2 (human, UniProt Q96C92 59-435).
T3 construct: HuProt array protein, full-length recombinant from yeast; also called SDCCAG3
T3 chain: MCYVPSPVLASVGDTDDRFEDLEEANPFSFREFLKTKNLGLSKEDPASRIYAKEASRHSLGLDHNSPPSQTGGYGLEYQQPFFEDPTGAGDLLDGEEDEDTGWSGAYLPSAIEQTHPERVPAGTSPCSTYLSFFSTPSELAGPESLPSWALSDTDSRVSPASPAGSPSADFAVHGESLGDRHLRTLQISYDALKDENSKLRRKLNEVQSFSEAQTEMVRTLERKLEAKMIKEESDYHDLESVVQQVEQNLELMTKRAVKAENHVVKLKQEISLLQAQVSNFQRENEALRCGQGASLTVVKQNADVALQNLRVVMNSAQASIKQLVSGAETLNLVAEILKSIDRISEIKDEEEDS

Assay [4] deals with T4, kelch like ECH associated protein 1, transcript variant 1 (human, UniProt Q14145 1-624).
T4 construct: HuProt array protein, full-length recombinant from yeast; also called KEAP1
T4 sequence (Q14145 whole entry, change not shown): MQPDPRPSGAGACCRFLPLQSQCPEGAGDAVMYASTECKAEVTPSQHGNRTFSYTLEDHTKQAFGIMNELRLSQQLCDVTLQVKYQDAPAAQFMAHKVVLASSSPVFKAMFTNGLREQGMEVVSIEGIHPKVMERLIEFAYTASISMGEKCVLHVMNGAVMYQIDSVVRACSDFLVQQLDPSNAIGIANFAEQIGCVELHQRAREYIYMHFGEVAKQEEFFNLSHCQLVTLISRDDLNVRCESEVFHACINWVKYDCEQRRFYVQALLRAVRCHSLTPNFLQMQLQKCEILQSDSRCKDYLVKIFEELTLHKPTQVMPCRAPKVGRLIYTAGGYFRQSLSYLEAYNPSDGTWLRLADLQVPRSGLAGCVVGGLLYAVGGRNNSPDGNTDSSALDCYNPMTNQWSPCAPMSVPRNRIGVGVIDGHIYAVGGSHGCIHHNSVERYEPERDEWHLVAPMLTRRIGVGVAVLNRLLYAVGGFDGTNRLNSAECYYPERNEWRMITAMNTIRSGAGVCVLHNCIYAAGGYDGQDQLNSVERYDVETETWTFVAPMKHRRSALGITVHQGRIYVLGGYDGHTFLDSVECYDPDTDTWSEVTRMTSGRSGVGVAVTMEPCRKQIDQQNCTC

The next assay addresses T5, DEAD-box helicase 53 (human, UniProt Q86TM3 1-631).
T5 construct: on protein array; also called DDX53
In words: protein array.

The target of assay [5] is T6, PNMA family member 5, transcript variant 2 (human, UniProt Q96PV4 1-448).
T6 construct: HuProt array protein, full-length recombinant from yeast; also called PNMA5
T6 sequence (Q96PV4 other isoform, or with tags, fused parts or gaps mutant limits assumed): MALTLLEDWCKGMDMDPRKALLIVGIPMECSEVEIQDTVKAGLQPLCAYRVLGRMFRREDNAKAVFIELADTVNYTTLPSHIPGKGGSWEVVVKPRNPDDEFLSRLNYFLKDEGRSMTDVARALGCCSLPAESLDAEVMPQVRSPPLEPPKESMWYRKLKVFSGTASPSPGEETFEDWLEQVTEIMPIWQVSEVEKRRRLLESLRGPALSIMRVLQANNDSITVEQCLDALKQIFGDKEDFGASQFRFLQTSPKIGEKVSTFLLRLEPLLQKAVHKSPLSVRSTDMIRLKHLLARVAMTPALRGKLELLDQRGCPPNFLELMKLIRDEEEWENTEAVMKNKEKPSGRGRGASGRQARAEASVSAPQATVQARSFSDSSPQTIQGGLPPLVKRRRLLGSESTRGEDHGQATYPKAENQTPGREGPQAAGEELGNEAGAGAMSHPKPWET

Assay [6] concerns the target T7, PNMA family member 5, transcript variant 2 (human, UniProt Q96PV4 1-448).
T7 construct: on protein array; also called PNMA5
In words: protein array.
T7 sequence (Q96PV4 other isoform, or with tags, fused parts or gaps mutant limits assumed): as above

Where two headings read alike, the source gives them in different places.

T5 sequence (Q86TM3 other isoform, or with tags, fused parts or gaps limits assumed): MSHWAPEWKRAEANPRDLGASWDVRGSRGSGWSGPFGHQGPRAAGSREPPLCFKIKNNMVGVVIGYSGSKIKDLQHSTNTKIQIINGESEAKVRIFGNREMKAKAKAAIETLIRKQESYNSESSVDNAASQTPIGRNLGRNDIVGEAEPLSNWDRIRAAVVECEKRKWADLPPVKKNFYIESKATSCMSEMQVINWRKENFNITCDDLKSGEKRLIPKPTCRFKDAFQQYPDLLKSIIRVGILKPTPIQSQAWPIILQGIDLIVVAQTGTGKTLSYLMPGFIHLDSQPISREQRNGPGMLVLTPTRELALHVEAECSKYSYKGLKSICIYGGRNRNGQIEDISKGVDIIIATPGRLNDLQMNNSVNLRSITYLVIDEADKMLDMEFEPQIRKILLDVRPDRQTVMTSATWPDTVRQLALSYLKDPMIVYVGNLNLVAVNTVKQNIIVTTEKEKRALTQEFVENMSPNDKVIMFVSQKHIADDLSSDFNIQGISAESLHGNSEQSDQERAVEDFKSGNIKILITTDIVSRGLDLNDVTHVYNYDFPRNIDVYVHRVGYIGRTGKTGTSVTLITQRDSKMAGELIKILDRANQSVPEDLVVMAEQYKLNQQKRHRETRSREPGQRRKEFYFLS

B1: TOVA1008 (antibody, V domains shown)
VH: ELQLVESGGGLVQPGGSLRLSCAASGFTFSSYWMSWVRQAPGKGLEWVANINQDGGEKYYVDSVKGRFTISRDNAKNSLYLQMNSLRAEDTAVYYCAHYYYDSSGYYQNAEYFQYWGQGTLVTVSS
VL: DIQMTQSPPSLSASVGDRVTITCQASQDISNYLNWYQQKPGKTPKLLIYAASTLETGVPSRFSGSGSGTDFTFTINSLQPEDIATYYCQQYDSLPLTFGGGTKVEIKR
notes: VH/VL tied via antigen in summary, not by name in this stretch
As for B1, the binding result in assay [1] is on record as “binds”.

B2: TMEL1025 (antibody, V domains shown)
VH: EVQLMESGGGLVQPGGSLRLSCAASGLTFSIYSMNWVRQAPGKGLEWVSYISRGSSVIYHADSVKGRFTISRDDGKNLLYLQMNSLRDDDTAMYYCSSGGSTSMVGRYWGQGSLVTVSS
VL: DVVMTQSPLYLPVTLGQPASISCRASQSLVYSDGNTYLNWVHQRPGQSPRRLIYMVSQRGSGVPDRFSGSGSDTDFTLKISRVEAEDVGVYYCMQGTHWSAFGQGTKLEIKR
notes: as for B1
In the case of B2, the binding result in assay [2] is on record as “binds”.

B3: TMEL1025 (antibody, V domains shown)
VH: EVQLMESGGGLVQPGGSLRLSCAASGLTFSIYSMNWVRQAPGKGLEWVSYISRGSSVIYHADSVKGRFTISRDDGKNLLYLQMNSLRDDDTAMYYCSSGGSTSMVGRYWGQGSLVTVSS
VL: DVVMTQSPLYLPVTLGQPASISCRASQSLVYSDGNTYLNWVHQRPGQSPRRLIYMVSQRGSGVPDRFSGSGSDTDFTLKISRVEAEDVGVYYCMQGTHWSAFGQGTKLEIKR
notes: detected with anti-human IgG Fc
Regarding B3, the binding result in assay [3] is “binds”.

B4: TBRE1052 (antibody, V domains shown)
VH: PVQLIQSGAEVRKPGASVKVSCKVSGYTLSELSLHWVRQAPGKGLEWMGTFDPEDGETVYAQKFQGRVTVTEDTSTDTAYIDLSSLKSEDTAVYYCATDGPLHTSGLDYWGQGTLVTVSS
VL: EIVLTQSPATLSLSPGERATLSCRASQSISSNLAWYQQKPGQAPRLLIYDASNRATGIPARFSGSGSGTDFTLTISSLEPEDFAVYYCQQHSNWPELTFGGGTKVEIKR
notes: as for B3
As to B4, the binding result in assay [4] was “binds”.

B5: TOVA1001 (antibody, V domains shown)
VH: HVQLVQSGSELKKPGASVKLSCKASGYTFTNYAMNWVRQAPGQGLEWMGWINTNTGNPTYAQGFTGRFVFSLDTSVSTAYLQISSLKAEDTALYYCARDRPGDYWGQGTLVTVSS
VL: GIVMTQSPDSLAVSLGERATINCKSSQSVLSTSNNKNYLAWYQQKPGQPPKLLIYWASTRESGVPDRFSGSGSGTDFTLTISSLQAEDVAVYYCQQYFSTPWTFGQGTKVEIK
notes: as for B1
For B5, in the assay with DEAD-box helicase 53, the binding result is reported as “binds”.

B6: THNS1009 (antibody, V domains shown)
VH: QVQLQESGPGLVKPSETLSLTCTVSGGSISIYYWSWIRQPPGKGLEWIGYIYYSGSTNYNPSLKSRVTISVDTSKNQFSLKLRSVTAADTAVYYCARDTYGDPRGDYFDYWGQGTLVTVSS
VL: DIQMTQSPSTLSASVGDRVTITCRASQRISNWLAWYQQTPGKAPKLLIYKASSLESGVPSRFSGSGSGTEFTLTISSLQPDDFATYYCQQYSSSSPRTFGQGTKVEIKR
notes: as for B3
With B6, the binding result in assay [5] is recorded as “binds”.

B7: THNS1009 (antibody, V domains shown)
VH: QVQLQESGPGLVKPSETLSLTCTVSGGSISIYYWSWIRQPPGKGLEWIGYIYYSGSTNYNPSLKSRVTISVDTSKNQFSLKLRSVTAADTAVYYCARDTYGDPRGDYFDYWGQGTLVTVSS
VL: DIQMTQSPSTLSASVGDRVTITCRASQRISNWLAWYQQTPGKAPKLLIYKASSLESGVPSRFSGSGSGTEFTLTISSLQPDDFATYYCQQYSSSSPRTFGQGTKVEIKR
notes: VH/VL only
On to B7, for which the binding result in assay [6] is listed as “binds”.

B8: TCOL1007 (antibody, V domains shown)
VH: PVQLVESGGGVVQPGRSLRLSCAASGFTFSNYGMHWVRQAPGKGLEWVAVISDDGNDKDNADSVKGRFTISRDNSKNTLYLRMNSLRREDTAVYYCARDGFDYWGQGTLVTVSS
VL: DIVMTQTPLSMPVTPGEPASISCRSSQSLLDSDDGKTYLDWYLQKPGQSPQLLIYTVSYRASGVPDRFSGSGSGTDFTLKISRVEAEDVGVYYCMQRIEFPFTFGPGTKVDIKR
notes: as for B3
Regarding B8, the binding result in assay [4] is on record as “binds”.

B9: TBRE1011 (antibody, V domains shown)
VH: PVLLQESGPGLVKPSETLSLTCTVSGDSMSFYYWTWIRQPPGKGLEWIGYIYYSGNRNYNPSLNSRVTISVDTSKNEVSLKLTSVTAADTAAYYCARGRGEMDVWGQGTTVTVSS
VL: QSVLTQPPSASGTPGQGVTISCSGTSANIGKNYVSWYQHLPGTAPRLLIYRIDQRPSGVPDRFSGSKSGTSASLAISGLRPEDEADYYCAAWDDSLSGPVFGGGTKLTVLG
notes: VH/VL only
Take B9: the binding result in assay [6] is “binds”.

B10: TBRE1011 (antibody, V domains shown)
VH: PVLLQESGPGLVKPSETLSLTCTVSGDSMSFYYWTWIRQPPGKGLEWIGYIYYSGNRNYNPSLNSRVTISVDTSKNEVSLKLTSVTAADTAAYYCARGRGEMDVWGQGTTVTVSS
VL: QSVLTQPPSASGTPGQGVTISCSGTSANIGKNYVSWYQHLPGTAPRLLIYRIDQRPSGVPDRFSGSKSGTSASLAISGLRPEDEADYYCAAWDDSLSGPVFGGGTKLTVLG
notes: as for B3
For B10, in assay [5], the binding result was “binds”.

B11: TTES1011 (antibody, V domains shown)
VH: PVTLRESGPALVKPTQTLTLTCTFSGFSLSTSGMCVSWIRQPPGKALEWLARIDWDDDKYYSTSLKTRLTISKDTSKNQVVLTMTNMDPVDTATYYCARMQIVATTQTYYYYYGMDVWGQGTTVTVSS
VL: PAVLTQPPSVSGAPGQRVTISCTGSSSNIGAGYDVHWYQQLPGTAPKLLIYGNSNRPSGVPDRFSGSKSGTSASLAITGLQAEDEADYYCQSYDSSLSGSGVFGGGTKLTVLG
notes: as for B1
Turning to B11, in assay [1], the binding result is listed as “binds”.

B12: THNS1008 (antibody, V domains shown)
VH: QVQLQESGPGLVKPSQTLSLTCAVSGGSISSGGYPWSWIRQPPGKGLEWIGYISYSGSTDYNPSLKSRVTISLDTSSNQFSLNLSSLTAADTAVYYCARGAAFYYGMDVWGQGTTVTVSS
VL: DIQMTQSPSSLSASVGDRVTITCRASQSISTYLNWYQQKPGKAPKLLIYVASSLQSGVPSRFSGSGSGTDFTLTISGLQPEDFATYYCQQSYSTPYTFGQGTKLEIKR
notes: detected with anti-human IgG Fc; also called THINS1008
Consider B12, for which, in assay [4], the binding result is “binds”.

B13: TSAR1004 (antibody, V domains shown)
VH: QVQLQESGPGLVKPSETLSLTCSVSGDSFSDYYWSWTRQSPGKGLEWLGYMFYGGSTNYNPSLKSRLTMSVDTSKKHVYLKLSSVTAADTAVYYCAASGYGDHVAYWGQGTLVTVSS
VL: DIVMTQSPDSLAVSLGERATLNCKSSQSVLSSYNNKDYLAWFQQKPGQPPQLLFYWASTRKTGVPDRFSGSGSGTDFTLTISSLQTEDVAVYYCQQYYSTPYTFGQGTKLEIK
notes: as for B1
Consider B13, for which, in the assay with DEAD-box helicase 53, the binding result was “binds”.

B14: TMES1001 (antibody, V domains shown)
VH: QVQLVQSGAEVKKPGASVKVSCKASGYTFTSYYMYWVRQAPGQGLEWMGIINPGGGSTSYAQKFQGRVTMTRDTSTSTVYMELSSLRSEDTAVYYCARVFRYGMDVWGQGTTVTVSS
VL: EIVMTQSPATLSVSPGERATLSCRASQSVSSNLAWYQQKPGQAPRLLIYGASTRATGLPARFSGSGSGTEFTLTISSLQSEDFAVYYCQSRGTFGGGTKVEIK
notes: as for B1
For the molecule B14, the binding result in assay [2] is listed as “binds”.

B15: TMES1001 (antibody, V domains shown)
VH: QVQLVQSGAEVKKPGASVKVSCKASGYTFTSYYMYWVRQAPGQGLEWMGIINPGGGSTSYAQKFQGRVTMTRDTSTSTVYMELSSLRSEDTAVYYCARVFRYGMDVWGQGTTVTVSS
VL: EIVMTQSPATLSVSPGERATLSCRASQSVSSNLAWYQQKPGQAPRLLIYGASTRATGLPARFSGSGSGTEFTLTISSLQSEDFAVYYCQSRGTFGGGTKVEIK
notes: as for B3
Consider B15, for which the binding result in assay [3] is “binds”.
